Measurements: patent publication US20130273029A1 (Novartis, published 2013)
Changes are numbered by the printed parent chain.

B1: MOR13759 (antibody, human IgG1, kappa, V domains shown)
VH: QVQLVQSGAEVKKPGESLKISCKGSGYSFTTTWVAWVRQMPGKGLEWMGIIYPGLSDTIYSPSFQGQVTISADKSISTAYLQWSSLKASDTAMYYCARVHIIQPPSAWSYNAMDVWGQGTLVTVSS
VL: DIQMTQSPSSLSASVGDRVTITCRASQSISTYLNWYQQKPGKAPKLLIFGASNLQSGVPSRFSGSGSGTDFTLTISSLQPEDFATYYCQQSITELFTFGQGTKVEIKR
notes: tested as IgG
B2: MOR13869 (antibody, human IgG1, kappa, V domains shown)
VH: B1 VH with T30S, T31N, T32Y, V34I, L55G
VL: B1 VL
notes: tested as IgG
B3: MOR13868 (antibody, human IgG1, kappa, V domains shown)
VH: B1 VH with T30S, T31N, T32Y, V34I
VL: B1 VL
notes: tested as IgG
B4: MOR13762 (antibody, human IgG1, kappa, V domains shown)
VH: B1 VH with T31N, L55Q
VL: B1 VL
notes: tested as IgG
B5: MOR13763 (antibody, human IgG1, kappa, V domains shown)
VH: B1 VH with T31S, T32Y, L55Q
VL: B1 VL
notes: tested as IgG
B6: MOR13767 (antibody, human IgG1, kappa, V domains shown)
VH: B1 VH with T32S, L55Q
VL: B1 VL
notes: tested as IgG
B7: MOR13867 (antibody, human IgG1, kappa, V domains shown)
VH: B1 VH with T30S, T31N, T32Y, V34I, L55Q
VL: B1 VL
notes: tested as IgG
B8: MOR13766 (antibody, human IgG1, kappa, V domains shown)
VH: B1 VH with L55S
VL: B1 VL
notes: tested as IgG
B9: MOR13761 (antibody, human IgG1, kappa, V domains shown)
VH: B1 VH with T31Q, L55Q
VL: B1 VL
notes: tested as IgG
B10: MOR13765 (antibody, human IgG1, kappa, V domains shown)
VH: B1 VH with T31G, T32S, L55T
VL: B1 VL
notes: tested as IgG

Molecular target: T1, Human HER3, endogenous, on human cancer cell lines (SK-Br-3, MCF7, BT-474) (human, UniProt P21860 20-1342)
Test: cell-based or functional assay

T1 sequence (P21860 20-1342): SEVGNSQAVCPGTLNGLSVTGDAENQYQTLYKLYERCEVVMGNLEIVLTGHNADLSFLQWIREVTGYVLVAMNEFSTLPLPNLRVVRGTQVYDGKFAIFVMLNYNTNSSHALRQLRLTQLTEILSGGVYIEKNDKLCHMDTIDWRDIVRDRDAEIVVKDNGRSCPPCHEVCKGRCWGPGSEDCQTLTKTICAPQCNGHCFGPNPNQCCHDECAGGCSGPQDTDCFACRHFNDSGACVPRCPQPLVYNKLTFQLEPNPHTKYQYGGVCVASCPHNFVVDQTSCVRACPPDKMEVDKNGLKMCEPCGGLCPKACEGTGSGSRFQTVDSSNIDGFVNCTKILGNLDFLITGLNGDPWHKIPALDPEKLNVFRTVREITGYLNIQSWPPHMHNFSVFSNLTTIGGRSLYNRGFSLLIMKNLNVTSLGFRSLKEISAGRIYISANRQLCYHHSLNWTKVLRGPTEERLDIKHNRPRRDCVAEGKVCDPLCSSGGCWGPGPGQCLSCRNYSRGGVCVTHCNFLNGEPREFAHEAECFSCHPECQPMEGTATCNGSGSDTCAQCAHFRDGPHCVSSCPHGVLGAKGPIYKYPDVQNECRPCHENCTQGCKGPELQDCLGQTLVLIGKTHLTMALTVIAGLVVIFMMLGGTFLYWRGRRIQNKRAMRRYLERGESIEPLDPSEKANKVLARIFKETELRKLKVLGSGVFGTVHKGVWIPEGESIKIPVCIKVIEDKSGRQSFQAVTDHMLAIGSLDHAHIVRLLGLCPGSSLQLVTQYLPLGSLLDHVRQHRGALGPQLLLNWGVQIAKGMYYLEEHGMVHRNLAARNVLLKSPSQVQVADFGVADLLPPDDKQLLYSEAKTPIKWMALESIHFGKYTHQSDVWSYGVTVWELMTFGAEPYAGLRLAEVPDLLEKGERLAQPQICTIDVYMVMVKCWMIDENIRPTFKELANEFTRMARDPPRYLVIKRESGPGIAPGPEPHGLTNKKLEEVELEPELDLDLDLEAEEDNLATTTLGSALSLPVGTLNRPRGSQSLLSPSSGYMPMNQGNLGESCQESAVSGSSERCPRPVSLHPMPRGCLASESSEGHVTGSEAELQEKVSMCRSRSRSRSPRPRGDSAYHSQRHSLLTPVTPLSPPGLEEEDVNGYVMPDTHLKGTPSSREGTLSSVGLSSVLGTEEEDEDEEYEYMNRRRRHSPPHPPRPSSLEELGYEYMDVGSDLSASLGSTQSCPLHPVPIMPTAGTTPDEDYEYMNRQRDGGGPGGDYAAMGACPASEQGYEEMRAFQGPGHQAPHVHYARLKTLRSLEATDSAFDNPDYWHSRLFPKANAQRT

Binder	BT474 pHER3 % inhibition [%]	BT474 pHER3 IC50 [pM]	MCF7 pHER3 % inhibition [%]	MCF7 pHER3 IC50 [pM]	SK-Br-3 pHER3 % inhibition [%]	SK-Br-3 pHER3 IC50 [pM]
B1	70	431	74	277	77	124
B2	55	1330	64	427	77	263
B3	68	894	75	189	83	205
B4	41	271			70	90
B5	60	19500			77	107
B6	61	496			78	130
B7	71	643	78	267	83	107
B8	62	708	72	354	79	106
B9	56	364			76	62
B10	61	806	71	374	79	227

Molecular target: T1, Human HER3, endogenous, on human cancer …
Test: cell-based or functional assay
Remark: another data set of the same source

Binder	BT-474 pAkt (S473) % inhibition [%]	BT-474 pAkt (S473) IC50 [pM]	MCF7 pAkt (S473) % inhibition [%]	MCF7 pAkt (S473) IC50 [pM]	SK-Br-3 pAkt (S473) % inhibition [%]	SK-Br-3 pAkt (S473) IC50 [pM]
B1	81	274	76	248	91	60
B2	79	3040			91	212
B3	81	537			92	78
B4	86	291			86	63
B5	76	378			84	76
B6	82	167			89	92
B7	84	472			95	120
B8	75	1190	67	296	91	89
B9	83				86	52
B10	73	1180	71	412	90	113

Molecular target: T1, Human HER3, endogenous, on human cancer …
Test: cell-based or functional assay
Remark: another data set of the same source

Binder	BT-474 proliferation % inhibition [%]	BT-474 proliferation IC50 [nM]	MCF7 proliferation % inhibition [%]	MCF7 proliferation IC50 [nM]	SK-Br-3 proliferation % inhibition [%]	SK-Br-3 proliferation IC50 [nM]
B1	35	6.26	49	0.151	41	0.23
B2	28	10.6	52		24	5.41
B3	39	1.72	58		29	0.251
B4	37	0.546			45	0.053
B5	36	0.671			49	0.326
B6	48	0.924			48	0.285
B7	42	0.376	69	0.056	41	0.31
B8	37	2.56	53		45	2.35
B9	36	0.56			48	0.134
B10	27	3.1			46	0.732

Molecular target: T2, Hu HER3: CD33-[Human HER3, residues 20-640]-TAG (human, UniProt P21860 20-640)
T2 construct: also called hu HER3-Tag; HER3-Tag; not shown: C-terminal TAG (e.g., FLAG TAG)
Test: SET, IgG vs soluble HER3-Tag
Protocol: Affinity determination in solution was essentially performed as previously described (Friguet et al., (1985) J Immunol Methods 77:305-19). In order to improve the sensitivity and accuracy of the SET method, it was transferred from classical ELISA to ECL based technology (Haenel et al., (2005) Anal Biochem 339:182-84).
The data was evaluated with XLfit software (ID Business Solutions) applying customized fitting models.
Antibody affinity was determined by solution equilibrium titration (SET) as described above. The results are summarized in Table 3 and example titration curves for MOR12616 and MOR12925 are contained in FIG. 1.

T2 sequence (P21860 20-640): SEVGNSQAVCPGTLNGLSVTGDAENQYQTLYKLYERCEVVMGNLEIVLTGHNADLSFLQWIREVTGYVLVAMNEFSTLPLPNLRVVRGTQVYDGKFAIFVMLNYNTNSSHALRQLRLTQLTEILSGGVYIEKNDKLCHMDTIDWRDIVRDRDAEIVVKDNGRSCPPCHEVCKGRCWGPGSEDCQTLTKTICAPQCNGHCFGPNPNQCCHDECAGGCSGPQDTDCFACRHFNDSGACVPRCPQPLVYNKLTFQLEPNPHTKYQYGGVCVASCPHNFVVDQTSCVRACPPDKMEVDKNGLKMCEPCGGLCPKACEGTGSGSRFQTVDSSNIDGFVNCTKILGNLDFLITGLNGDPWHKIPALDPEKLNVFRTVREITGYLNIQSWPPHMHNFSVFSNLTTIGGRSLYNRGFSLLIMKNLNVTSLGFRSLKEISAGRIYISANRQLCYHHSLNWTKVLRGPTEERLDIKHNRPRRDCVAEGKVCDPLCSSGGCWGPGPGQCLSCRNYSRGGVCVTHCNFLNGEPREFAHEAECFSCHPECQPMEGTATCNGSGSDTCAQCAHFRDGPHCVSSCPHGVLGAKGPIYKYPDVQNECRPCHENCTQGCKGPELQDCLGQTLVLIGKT

Binder	Kd [nM]
B1	0.051
B2	0.23
B3	0.133
B4	0.025
B5	0.027
B6	0.024
B7	0.03
B8	0.054
B9	0.028
B10	0.064
